Laboratory results from patent US20250152742A1, “COMPOSITIONS AND METHODS FOR NEUROLOGICAL DISEASES” (Trames Bio, Inc., priority 2022, published 2025).
Where a chain is given by its changes, count along the chain named. In names and notes the source's numbering stands.

B1: CODA535: engineered receptor: L131T, S172D in SEQ ID NO: 33 (protein)
chain: MRCSPGGVWLALAASLLHVSLQGEFQRKLYKELVKNYNPLERPVANDSQPLTVYFSLSLLQIMDVDEKNQVLTTNIWLQMSWTDHYLQWNVSEYPGVKTVRFPDGQIWKPDILLYNSADERFDATFHTNVTVNSSGHCQYLPPGIFKSSCPMDLKNFPMDVQTCKLKFGSWDYGGWSLDLQMQEADISGYIPNGEWDLVGIPGKRSERFYECCKEPYPDVTFTVTMRRRMGYYLIQMYIPSLLIVILSWISFWINMDAAPARVGLGITTVLTMTTQSSGSRASLPKVSYVKAIDIWMAVCLLFVFSALLEYAAVNFVSRQHKELLRFRRKRRHHKSPMLNLFQEDEAGEGRFNFSAYGMGPACLQAKDGISVKGANNSNTTNPPPAPSKSPEEMRKLFIQRAKKIDKISRIGFPMAFLIFNMFYWIIYKIVRREDVHNQ
modifications: synthetic sequence of chimeric LGIC
B2: CODA805: engineered receptor: Y115D, S170T in SEQ ID NO: 33 (protein)
chain: B1 chain with Y115D, T131L, S170T, D172S
modifications: synthetic sequence of chimeric LGIC

System: engineered chimeric receptor SEQ ID NO: 33 and its mutants (human α7-nAChR ligand binding domain / human GlyRα1 ion pore domain) in Lenti-X 293T cells
Test: YFP fluorescence quenching anion reporter plate reader assay (percent quench, EC50)
Type: cell-based
Conditions: for YFP fluorescence quenching using CNL001 (percent quench): receptor named in row; for YFP fluorescence quenching using Facinicline, 30 nM fac: ligand Facinicline 30 nM; for YFP fluorescence quenching using Facinicline, 300 nM fac: ligand Facinicline 300 nM; for YFP fluorescence quenching using Facinicline, 30 uM fac: ligand Facinicline 30 uM; for YFP fluorescence quenching using TC-6987, 1 uM tc6987: ligand TC-6987 1 uM; for YFP fluorescence quenching using TC-6987, 10 uM tc6987: ligand TC-6987 10 uM; for YFP fluorescence quenching using TC-6987, 500 uM tc6987: ligand TC-6987 500 uM
Outline: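 Percent quench compares mean YFP signal over the final 10 s with the 15 s baseline before ligand, added in iodide-containing extracellular solution (pH 7.2). Cells were LX293T carrying a YFP anion reporter, transiently transfected with the channel construct; plates were preincubated 30 min at 37 °C.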

[1] = 1 nM CNL001, first column so headed
[2] = 1 nM CNL001, second column so headed
[3] = 10 nM CNL001, first column so headed
[4] = 10 nM CNL001, second column so headed
[5] = 50 nM CNL001, first column so headed
[6] = 50 nM CNL001, second column so headed
[7] = 100 nM CNL001, first column so headed
[8] = 100 nM CNL001, second column so headed
[9] = 1 uM CNL001, first column so headed
[10] = 1 uM CNL001, second column so headed

Row | Molecule | YFP fluorescence quenching using CNL001 (percent quench) [1] | YFP fluorescence quenching using CNL001 (percent quench) [2] | YFP fluorescence quenching using CNL001 (percent quench) [3] | YFP fluorescence quenching using CNL001 (percent quench) [4] | YFP fluorescence quenching using CNL001 (percent quench) [5] | YFP fluorescence quenching using CNL001 (percent quench) [6] | YFP fluorescence quenching using ABT-126 (percent quench) (50 nM abt (ABT-126)) | YFP fluorescence quenching using CNL001 (percent quench) [7] | YFP fluorescence quenching using CNL001 (percent quench) [8] | YFP fluorescence quenching (percent quench) (100 nM CNL002) | YFP fluorescence quenching using ABT-126 (percent quench) (100 nM abt (ABT-126)) | YFP fluorescence quenching using AZD-0328 (percent quench) (100 nM azd0328) | YFP fluorescence quenching using ABT-126 (percent quench) (300 nM abt (ABT-126)) | YFP fluorescence quenching using AZD-0328 (percent quench) (300 nM azd0328) | YFP fluorescence quenching using CNL001 (percent quench) [9] | YFP fluorescence quenching using CNL001 (percent quench) [10] | YFP fluorescence quenching (percent quench) (1 uM CNL002) | YFP fluorescence quenching using ABT-126 (percent quench) (1 uM abt (ABT-126)) | YFP fluorescence quenching (percent quench) (10 uM ach (acetylcholine)) | YFP fluorescence quenching (percent quench) (30 uM CNL002) | other results
1 | B1 | 8.736% | 24.572% | 60.552% | 63.09% | 73.242% | 73.889% | −11.09% | 76.147% | 76.21% | 1.23% | −10.37% | −7.02% | −4% | −0.48% | 78.988% | 78.818% | 35.77% | 4.05% | −12.24% | 68.29% | YFP fluorescence quenching using TC-6683 (percent quench) (30 nM TC-6683): −29.362%; YFP fluorescence quenching using TC-6683 (percent quench) (300 nM TC-6683): −28.954%; YFP fluorescence quenching using TC-6683 (percent quench) (3 uM TC-6683): −23.708%; YFP fluorescence quenching using TC-6683 (percent quench) (30 uM TC-6683): −23.431%; YFP fluorescence quenching using AZD-0328 (percent quench) (30 uM azd0328): 70.16%; YFP fluorescence quenching using TC-6683 (percent quench) (100 uM TC-6683): −18.324%; YFP fluorescence quenching (percent quench) (100 uM ach (acetylcholine)): −26.23%; YFP fluorescence quenching (percent quench) (1 mM ach (acetylcholine)): −1.16%; YFP fluorescence quenching (percent quench) (3 mM ach (acetylcholine)): 2.97%; YFP fluorescence quenching using Facinicline, 30 nM fac: −21.36; YFP fluorescence quenching using Facinicline, 300 nM fac: 4.17; YFP fluorescence quenching using Facinicline, 30 uM fac: 65.94; YFP fluorescence quenching using TC-6987, 1 uM tc6987: −21.8; YFP fluorescence quenching using TC-6987, 10 uM tc6987: −27.08; YFP fluorescence quenching using TC-6987, 500 uM tc6987: −21.56
2 | B2 | −10.729% | −15.278% | −20.403% | −14.905% | −14.303% | −15.741% | −11.83% | −12.637% | −10.606% | −18.17% | −11.5% | −0.71% | −8.01% | −1.73% | −13.535% | −11.335% | −15.2% | −9.34% | −0.46% | −14% | YFP fluorescence quenching using TC-5619/Bradanicline (percent quench) (1 nM brd (TC-5619/Bradanicline)): −9.78%; YFP fluorescence quenching using TC-5619/Bradanicline (percent quench) (3 nM brd (TC-5619/Bradanicline)): −12.06%; YFP fluorescence quenching using TC-5619/Bradanicline (percent quench) (10 nM brd (TC-5619/Bradanicline)): −9.02%; YFP fluorescence quenching using TC-5619/Bradanicline (percent quench) (30 nM brd (TC-5619/Bradanicline)): −16.3%; YFP fluorescence quenching using TC-5619/Bradanicline (percent quench) (100 nM brd (TC-5619/Bradanicline)): −7.44%; YFP fluorescence quenching using TC-5619/Bradanicline (percent quench) (300 nM brd (TC-5619/Bradanicline)): −10.93%; YFP fluorescence quenching using TC-5619/Bradanicline (percent quench) (1 uM brd (TC-5619/Bradanicline)): −4.55%; YFP fluorescence quenching using AZD-0328 (percent quench) (30 uM azd0328): 47.39%; YFP fluorescence quenching (percent quench) (100 uM ach (acetylcholine)): −4.93%; YFP fluorescence quenching (percent quench) (1 mM ach (acetylcholine)): −11.18%; YFP fluorescence quenching (percent quench) (3 mM ach (acetylcholine)): −3.53%; YFP fluorescence quenching using Facinicline, 30 nM fac: 38.08; YFP fluorescence quenching using Facinicline, 100 nM fac (ligand Facinicline 100 nM): −14.37; YFP fluorescence quenching using Facinicline, 300 nM fac: 19.41; YFP fluorescence quenching using Facinicline, 10 uM fac (ligand Facinicline 10 uM): 67.33; YFP fluorescence quenching using Facinicline, 30 uM fac: 79.67; YFP fluorescence quenching using TC-6987, 1 uM tc6987: 31.9; YFP fluorescence quenching using TC-6987, 10 uM tc6987: 25.54; YFP fluorescence quenching using TC-6987, 500 uM tc6987: 21.13
